Data as given in PMC3240954 (Scientific Reports, 2011).

Legend:
[1] = target: WhiA (S. coelicolor), full-length, untagged (S. coelicolor, UniProt Q9Z515 1-328); assay: pull-down
H6-WhiA full-length = H6-WhiA full-length (Streptomyces coelicolor, UniProt Q9Z515 1-328); assay: competition
H6-WhiA full-length, sequence (Q9Z515 whole entry): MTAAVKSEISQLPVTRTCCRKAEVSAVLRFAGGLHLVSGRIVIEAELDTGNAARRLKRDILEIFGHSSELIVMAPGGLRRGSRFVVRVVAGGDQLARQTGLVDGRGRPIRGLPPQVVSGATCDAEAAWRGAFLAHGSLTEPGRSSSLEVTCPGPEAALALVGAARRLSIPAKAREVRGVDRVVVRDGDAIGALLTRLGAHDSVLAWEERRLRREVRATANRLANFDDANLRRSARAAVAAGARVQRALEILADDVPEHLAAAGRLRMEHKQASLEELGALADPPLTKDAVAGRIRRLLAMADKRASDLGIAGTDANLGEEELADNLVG

WhiA (S. coelicolor), full-length, untagged, sequence (Q9Z515 whole entry): as above

| Binder | binding result [1] | binding result (H6-WhiA full-length) |
| --- | --- | --- |
| His-tagged WhiG (H6-WhiG) (natural protein, UniProt P17211 1-280, looked up) MPQHTSGSDRAAIPPAARDGGSVRPPAPSTLDELWRSYKTTGDERLREQLILHYSPLVKYVAGRVSVGLPPNVEQADFVSSGVFGLIDAIEKFDVDREIKFETYAITRIRGAMIDELRALDWIPRSVRQKARNVERAYATLEARLRRTPSESEVAVEMGIAVEDLHAVFSQLSLANVVALEELLHAGGEGGGRLSLMDTLEDTAADNPVEVAEDRELRRLLARAINTLPEREKTVVTLYYYEGLTLAEIGNVLGVTESRVSQIHTKSVLQLRAKLAGFGR | binds |  |
| -22/A (dsDNA) DNA 1: CGTCATTTGGAGGTTTTGGGACAACACGCCCCTAAACTCGCCCT DNA 2: AGGGCGAGTTTAGGGGCGTGTTGTCCCAAAACCTCCAAATGACG |  | binds |
